According to US20200277375A1 (ULTRAHUMAN FOUR, published 2020):

T1: mouse CD47-Fc (mouse, UniProt Q61735 19-140, limits assumed)
T1 construct: Recombinant CD47-Fc; also called mCD47-Fc; mCD37-Fc [sic]; not shown: Fc part
T1 sequence (looked up): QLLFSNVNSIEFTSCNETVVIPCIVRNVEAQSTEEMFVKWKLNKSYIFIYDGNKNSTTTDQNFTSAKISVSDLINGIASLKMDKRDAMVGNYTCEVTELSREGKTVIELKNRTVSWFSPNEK


Columns and labels:
[1] = biological target: T2, human CD47 on cells (human CD47-transfected CHO-K1; HL60) (human, UniProt Q08722 19-323); assay: flow cytometry, human CD47-transfected CHO-K1, FIG. 6
T2 construct: whole, on cells; also called human CD47+ cells; human CD47+HL60 cells
Procedure: (§1) FIG. 6A-FIG. 6C. Flow cytometric binding to human and cyno CD47+CHO-K1 cells. Commercial anti-CD47 antibody MS1991, human IgG1 (“I IgG1”) and IgG4 (“I IgG4”) Isotype controls, lead library-derived IgGs in both IgG1null (“IgG1N”) and IgG4(S228P) formats were examined for specific binding on cyno-transfected CHO-K1 cells (FIG. 6A), human-transfected CHO-K1 cells (FIG. 6B), and wild type (wt, i.e. untransfected) CHO-K1 cells (FIG. 6C). IgGs were tested at concentrations ranging from 24-100,000 ng/ml. Concentration-dependent binding was observed against both human and cyno cell lines for all CD47-specific antibodies but not Isotype controls.
(§2) Antibodies to CD47 were analysed for concentration-dependent binding at the cell surface via flow cytometry. CHO-K1 cells were stably transfected with either human, mouse or cyno CD47 full-length cDNAs. Anti-CD47 IgGs mVH/mVL, VH-A1/VL-B1, A-D5, G-B6, F-E7 and D-H3, and an isotype control IgG1 were then all tested in IgG1null and IgG4(S228P) formats, alongside a commercial mouse anti-human CD47 monoclonal MS1991, over a concentration range of 100,000-24 ng/ml for binding to human, cyno or wild type control (‘wt’, i.e. untransfected) CHO-K1.

[2] = biological target: T3, cynomolgus monkey CD47 on transfected CHO-K1 cells (cynomolgus monkey, UniProt A0A5F8AK49 19-323 (rhesus entry)); assay: flow cytometry, cyno CD47-transfected CHO-K1, FIG. 6
T3 construct: whole, on cells; also called cyno CD47+ cells
Procedure: as §1, §2

mouse CD47-Fc [3] = biological target: T1, mouse CD47-Fc; assay: direct titration ELISA, FIG. 11C
Procedure: (§3) FIG. 11A-FIG. 11C. Direct titration ELISA for A-D5.4-derived designer IgGs binding to human, mouse and cyno CD47-Fc proteins. Chimeric anti-CD47 (mVH/mVL), designer A-D5.4-derived clones in human IgG1 null format were titrated (in μg/ml) in a direct binding ELISA against human (FIG. 11A), cyno (FIG. 11B) and mouse (FIG. 11C) CD47-Fc proteins. […] In the figure legends, “IgG1NI” refers to IgG1 null isotype.
(§4) To coat Greiner Bio-One High bind ELISA plates, target proteins were diluted to 1 μg/ml in carbonate buffer and added at 100 μl per well, at 4° C., o/n. Coated plates were washed 3× with PBS pH7.4, blocked with 1% BSA in PBS (380 μl/well) for 1 hr at RT, then washed 3× with PBS-Tween 20 (PBST). CD47 antibodies (100 μl/well; diluted in PBST) were then added and then incubated 1 hr at RT. Plates were then washed 3× with PBST and goat anti-human kappa chain-HRP added (100 μl/well) at RT, for 1 hr. Plates were then washed 3× with PBST and twice with PBS before the addition of 100 μl TMB per well. Reactions were stopped by adding 100 μl 2M H₂SO₄/well and OD was read on a plate reader at 450 nm.

human CD47-Fc [4] = biological target: T4, human CD47-Fc (human, UniProt Q08722 19-139); assay: direct specificity ELISA, IgG 1 µg/ml, FIG. 5
T4 construct: Recombinant CD47-Fc; also called hCD47-Fc; not shown: Fc part
Description: (§5) FIG. 5A-FIG. 5G. Binding specificity analyses for prioritized lead clones. Off-target homologue binding risk for mVH/mVL in IgG1 (FIG. 5A) and IgG1null (FIG. 5B) format and library-derived leads A-D5 (FIG. 5C), VH-A1/VL-B1 (FIG. 5D), F-E7 (FIG. 5E), D-H3 (FIG. 5F), and G-B6 (FIG. 5G) in IgG1null format was examined by direct ELISA on CD47-Fc orthologs and a panel of 14 human immunoglobulin superfamily proteins as labelled on each X-axis (“B” refers to blank). Binding to human, cyno and murine CD47-Fcs (h/c/mCD47-Fc) was performed at an IgG concentration of 1 μg/ml. Binding to all other proteins was performed at an IgG concentration of 10 μg/ml.
(§6) To ensure that that lead clones had not suffered from loss of target specificity during the mutation and reselection process; lead and control IgG1 clones were tested for binding to a panel of 14 purified human proteins from the immunoglobulin superfamily (FIG. 5).

mouse CD47-Fc [5] = biological target: T1, mouse CD47-Fc; assay: direct specificity ELISA, IgG 1 µg/ml, FIG. 5
Description: as §5, §6

[6] = biological target: T5, cynomolgus monkey CD47-Fc (cynomolgus monkey, UniProt A0A2K5X523 19-139); assay: direct specificity ELISA, IgG 1 µg/ml, FIG. 5
T5 construct: Recombinant CD47-Fc; also called cyno CD47-Fc; cCD47-Fc; not shown: Fc part
Description: as §5, §6

human CD47-Fc [7] = biological target: T4, human CD47-Fc; assay: direct titration ELISA, FIG. 11A
Procedure: as §3, §4

maximum MFI, fold over untransfected CHO-K1 [1]	maximum MFI, fold over untransfected CHO-K1 [2]	binding result (mouse CD47-Fc [3])	OD450 nm (human CD47-Fc [4])	OD450 nm (mouse CD47-Fc [5])	OD450 nm [6]	binding result (human CD47-Fc [7])	Binder
> 10 fold	> 10 fold		> 2 OD450 nm	> 1.25 OD450 nm	> 2 OD450 nm		A-D5 in human IgG1null format (antibody, V domains shown, IgG1null (IgG1 L234A/L235A/G237A), kappa; also called IgG1 A-D5N) VH: EVQLVQSGAEVKKPGESLKISCKGSGYTFTNYYIFWVRQMPGKGLEWMGIINPVDGDTNYNPSFQGQVTISADKSISTAYLQWSSLKASDTAMYYCARGGYTMDRWGQGTLVTVSS VL: DIVMTQSPLSLPVTPGEPASISCRSSQSLLHSNGYTYLHWYLQKPGQSPQLLIYKVSNRLSGVPDRFSGSGSGTDFTLKISRVEAEDVGVYYCFQNTHTPRTFGQGTKVEIK
		binds				binds	A-D5.15 in human IgG1null format (antibody, V domains shown, Designer clone from A-D5.4; IgG1null) VH: EVQLVQSGAEVKKPGESLKISCKGSGYSFTNYYIFWVRQMPGKGLEWMGIINPVDGDTRYSPSFQGQVTISADKSISTAYLQWSSLKASDTAMYYCARGGYTMDRWGQGTLVTVSS VL: DIVMTQSPLSLPVTPGEPASISCRSSQSLLHSGGYNYLHWYLQKPGQSPQLLIYKVSNRLSGVPDRFSGSGSGTDFTLKISRVEAEDVGVYYCFQNTHTPRTFGQGTKVEIK
		binds				binds	A-D5.12 in human IgG1null format (antibody, V domains shown, Designer clone from A-D5.4; IgG1null) VH: EVQLVQSGAEVKKPGESLKISCKGSGYSFTNYYIFWVRQMPGKGLEWMGIINPVDGDTRYNPSFQGQVTISADKSISTAYLQWSSLKASDTAMYYCARGGYTMDRWGQGTLVTVSS VL: DIVMTQSPLSLPVTPGEPASISCRSSQSLLHSNGYNYLHWYLQKPGQSPQLLIYKVSNRLSGVPDRFSGSGSGTDFTLKISRVEAEDVGVYYCFQNTHTPRTFGQGTKVEIK
		binds				binds	A-D5.14 in human IgG1null format (antibody, V domains shown, Designer clone from A-D5.4; IgG1null) VH: EVQLVQSGAEVKKPGESLKISCKGSGYSFTNYYIFWVRQMPGKGLEWMGIINPVDGDTRYSPSFQGQVTISADKSISTAYLQWSSLKASDTAMYYCARGGYTMDRWGQGTLVTVSS VL: DIVMTQSPLSLPVTPGEPASISCRSSQSLLHSSGYNYLHWYLQKPGQSPQLLIYKVSNRLSGVPDRFSGSGSGTDFTLKISRVEAEDVGVYYCFQNTHTPRTFGQGTKVEIK
		binds				binds	A-D5.18 in human IgG1null format (antibody, V domains shown, Designer clone from A-D5.4; IgG1null) VH: EVQLVQSGAEVKKPGESLKISCKGSGYSFTNYYIFWVRQMPGKGLEWMGIINPVDGDTRYSPSFQGQVTISADKSISTAYLQWSSLKASDTAMYYCARGGYTMDRWGQGTLVTVSS VL: DIVMTQSPLSLPVTPGEPASISCRSSQSLLHSNAYNYLHWYLQKPGQSPQLLIYKVSNRLSGVPDRFSGSGSGTDFTLKISRVEAEDVGVYYCFQNTHTPRTFGQGTKVEIK

Further lines, the binder ahead of its results:

Binder	maximum MFI, fold over untransfected CHO-K1 [1]	maximum MFI, fold over untransfected CHO-K1 [2]	binding result (mouse CD47-Fc [3])	OD450 nm (human CD47-Fc [4])	OD450 nm (mouse CD47-Fc [5])	OD450 nm [6]	binding result (human CD47-Fc [7])
mVH/mVL (chimeric VxP037) in human IgG1null format (antibody, V domains shown, Murine v-domains on human IgG1null (IgG1 L234A/L235A/G237A), kappa; also called VP037; Chimeric anti-CD47) VH: EVQLQQFGAELVKPGASMKLSCKASGYTFTNYYVFWVKQRPGQGLEWIGDINPVNGDTNFNEKFKNKATLTVDKSSTTTYLQLSSLTSEDSAVYYCTRGGYTMDYWGQGTLVTVSS VL: DVVMTQTPLSLSVSLGDQASISCRSSQSLVHSNGNTYLHWYLQKPGQSPKLLIYKVSYRFSGVPDRFSGSGSGTDFTLKISRVEAEDLGVYFCSQNTHVPRTFGQGTKVEIK	> 10 fold	> 10 fold	binds				
G-B6 in human IgG1null format (antibody, V domains shown, IgG1null (L234A/L235A/G237A), kappa) VH: EVQLVQSGAEVKKPGESLKISCKGSGYSFTNYYIFWVRQMPGKGLEWIGDINPVNGDTNFSPSFQGQVTISADKSISTAYLQWSSLKASDTAMYYCARGGYTMDKWGQGTLVTVSS VL: DIVMTQSPLSLPVTPGEPASISCRSSQSLVHSNGYTYLHWYLQKPGQSPQLLIYKGSYRASGVPDRFSGSGSGTDFTLKISRVEAEDVGVYYCSQNTQTPRTFGQGTKVEIK	> 10 fold	> 10 fold		> 2 OD450 nm	> 1.25 OD450 nm	> 2 OD450 nm	
A-D5.11 in human IgG1null format (antibody, V domains shown, Designer clone from A-D5.4; IgG1null) VH: EVQLVQSGAEVKKPGESLKISCKGSGYSFTNYYIFWVRQMPGKGLEWMGIINPVDGDTNYNPSFQGQVTISADKSISTAYLQWSSLKASDTAMYYCARGGYTMDRWGQGTLVTVSS VL: DIVMTQSPLSLPVTPGEPASISCRSSQSLLHSNGYNYLHWYLQKPGQSPQLLIYKVSNRLSGVPDRFSGSGSGTDFTLKISRVEAEDVGVYYCFQNTHTPRTFGQGTKVEIK			binds				binds
A-D5.13 in human IgG1null format (antibody, V domains shown, Designer clone from A-D5.4; IgG1null) VH: EVQLVQSGAEVKKPGESLKISCKGSGYSFTNYYIFWVRQMPGKGLEWMGIINPVDGDTRYSPSFQGQVTISADKSISTAYLQWSSLKASDTAMYYCARGGYTMDRWGQGTLVTVSS VL: DIVMTQSPLSLPVTPGEPASISCRSSQSLLHSNGYNYLHWYLQKPGQSPQLLIYKVSNRLSGVPDRFSGSGSGTDFTLKISRVEAEDVGVYYCFQNTHTPRTFGQGTKVEIK			binds				binds
F-E7 in human IgG1null format (antibody, V domains shown, IgG1null (L234A/L235A/G237A), kappa) VH: EVQLVQSGAEVKKPGESLKISCKGSGYSFTNYYIFWVRQMPGKGLEWMGIINPVNGDTNYNPSFQGQVTISADKSISTAYLQWSSLKASDTAMYYCARGGYTMGKWGQGTLVTVSS VL: DIVMTQSPLSLPVTPGEPASISCRSSQSLVHSNGNTYLDWYLQKPGQSPQLLIYKGSYRFSGVPDRFSGSGSGTDFTLKISRVEAEDVGVYYCSQATHTPRTFGQGTKVEIK	> 10 fold	> 10 fold		> 2 OD450 nm	> 1.25 OD450 nm	> 2 OD450 nm	
A-D5.17 in human IgG1null format (antibody, V domains shown, Designer clone from A-D5.4; IgG1null) VH: EVQLVQSGAEVKKPGESLKISCKGSGYSFTNYYIFWVRQMPGKGLEWMGIINPVDGDTRYSPSFQGQVTISADKSISTAYLQWSSLKASDTAMYYCARGGYTMDRWGQGTLVTVSS VL: DIVMTQSPLSLPVTPGEPASISCRSSQSLLHSTGYNYLHWYLQKPGQSPQLLIYKVSNRLSGVPDRFSGSGSGTDFTLKISRVEAEDVGVYYCFQNTHTPRTFGQGTKVEIK			binds				binds
D-H3 in human IgG1null format (antibody, V domains shown, IgG1null (L234A/L235A/G237A), kappa) VH: EVQLVQSGAEVKKPGESLKISCKGSGYSFTNYYIFWVRQMPGKGLEWMGDINPVNGDTNYSPSFQGQVTISADKSISTAYLQWSSLKASDTAMYYCARGGYTPDYWGQGTLVTVSS VL: DIVMTQSPLSLPVTPGEPASISCRSSQSLLHSNGYNYLHWYLQKPGQSPQLLIYKGSNRFSGVPDRFSGSGSGTDFTLKISRVEAEDVGVYYCSQNLHVPRTFGQGTKVEIK	> 10 fold	> 10 fold		> 2 OD450 nm	> 1.25 OD450 nm	> 2 OD450 nm	
